System: Escherichia coli TOP10
Test: shrunken log2 fold change of peptide-encoding DNA abundance (4.5 h post-induction vs induction); higher = less antimicrobial activity (less host growth inhibition)
Conditions: time post-induction: 4.5 h; library: site-saturation at positions 5, 18, 19, 20
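Note: peptides expressed intracellularly from a pBAD plasmid library in pooled LB shake-flask culture, induced with 0.3% L-arabinose, DNA abundance read by NGS, three biological replicates, DESeq2 with apeglm shrinkage.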

Sequence	shrunken log2 fold change
RRIRGRPPRLPRPRPRPVHWPRP	0.601
RRIRVRPPRLPRPRPRPKLDPRP	0.116
RRIRRRPPRLPRPRPRPDCMPRP	0.32
RRIRWRPPRLPRPRPRPWQYPRP	-0.0277
RRIRMRPPRLPRPRPRPADMPRP	0.728
RRIRCRPPRLPRPRPRPFTWPRP	-0.188
RRIRPRPPRLPRPRPRPDLAPRP	0.316
RRIRRRPPRLPRPRPRPGGDPRP	0.48
RRIRERPPRLPRPRPRPAWVPRP	0.174
RRIRERPPRLPRPRPRPAMRPRP	0.59
RRIRLRPPRLPRPRPRPKYWPRP	-0.131
RRIRSRPPRLPRPRPRPSDQPRP	-0.127
RRIRWRPPRLPRPRPRPQKIPRP	-0.178
RRIRTRPPRLPRPRPRPWMWPRP	0.101
RRIRHRPPRLPRPRPRPHYMPRP	-0.854
RRIRDRPPRLPRPRPRPQNWPRP	-0.00585
RRIRNRPPRLPRPRPRPNAHPRP	-0.456
RRIRSRPPRLPRPRPRPDSTPRP	-0.481
RRIRDRPPRLPRPRPRPYPCPRP	-0.112
RRIRDRPPRLPRPRPRPELLPRP	0.011
RRIRERPPRLPRPRPRPLYFPRP	-0.764
RRIRPRPPRLPRPRPRPRCPPRP	0.208
RRIRERPPRLPRPRPRPCDFPRP	-0.502
RRIRLRPPRLPRPRPRPRFQPRP	0.0867
RRIRWRPPRLPRPRPRPVARPRP	0.359

Sequence	shrunken log2 fold change
RRIRIRPPRLPRPRPRPTWLPRP	-0.124
RRIRKRPPRLPRPRPRPENWPRP	0.928
RRIRARPPRLPRPRPRPDIDPRP	0.462
RRIRNRPPRLPRPRPRPIDYPRP	-0.168
RRIRLRPPRLPRPRPRPSQMPRP	-0.261
RRIRCRPPRLPRPRPRPNHTPRP	-0.536
RRIRIRPPRLPRPRPRPIHVPRP	0.0502
RRIRKRPPRLPRPRPRPTMQPRP	0.626
RRIRWRPPRLPRPRPRPGHGPRP	0.214
RRIRLRPPRLPRPRPRPDYSPRP	0.14
RRIRPRPPRLPRPRPRPCQTPRP	0.0185
RRIRFRPPRLPRPRPRPQTYPRP	-0.69
RRIRTRPPRLPRPRPRPWFMPRP	-0.364
RRIRVRPPRLPRPRPRPYILPRP	-0.278
RRIRARPPRLPRPRPRPPGLPRP	0.517
RRIRERPPRLPRPRPRPPFQPRP	0.016
RRIRNRPPRLPRPRPRPVGWPRP	0.855
RRIRDRPPRLPRPRPRPLTSPRP	0.109
RRIRMRPPRLPRPRPRPHPEPRP	0.414
RRIRYRPPRLPRPRPRPQIRPRP	-0.00839
RRIRCRPPRLPRPRPRPTQYPRP	-0.0607
RRIRARPPRLPRPRPRPGCWPRP	0.965
RRIRSRPPRLPRPRPRPKPIPRP	0.271
RRIRCRPPRLPRPRPRPAGQPRP	-0.109
RRIRWRPPRLPRPRPRPEQIPRP	0.199

Sequence	shrunken log2 fold change
RRIRCRPPRLPRPRPRPAQQPRP	0.342
RRIRIRPPRLPRPRPRPKRVPRP	0.0424
RRIRQRPPRLPRPRPRPSNDPRP	-0.357
RRIRYRPPRLPRPRPRPIYYPRP	-0.461
RRIRERPPRLPRPRPRPGFQPRP	-0.104
RRIRERPPRLPRPRPRPRVMPRP	-0.244
RRIRARPPRLPRPRPRPVQKPRP	0.198
RRIRSRPPRLPRPRPRPTNPPRP	-0.0555
RRIRIRPPRLPRPRPRPLQLPRP	-0.573
RRIRMRPPRLPRPRPRPQQAPRP	0.0303
RRIRSRPPRLPRPRPRPCQPPRP	0.0956
RRIRNRPPRLPRPRPRPGTQPRP	-0.128
RRIRMRPPRLPRPRPRPIHTPRP	-0.0437
RRIRLRPPRLPRPRPRPKFIPRP	-0.304
RRIRLRPPRLPRPRPRPVFLPRP	-0.207
RRIRMRPPRLPRPRPRPVWMPRP	0.169
RRIRFRPPRLPRPRPRPIDTPRP	-0.127
RRIRPRPPRLPRPRPRPFQTPRP	-0.242
RRIRRRPPRLPRPRPRPAHNPRP	0.344
RRIRWRPPRLPRPRPRPSPAPRP	0.348
RRIRYRPPRLPRPRPRPTAVPRP	-0.169
RRIRYRPPRLPRPRPRPESHPRP	-0.226
RRIRFRPPRLPRPRPRPMMEPRP	-0.426
RRIRTRPPRLPRPRPRPVVKPRP	-0.189
RRIRMRPPRLPRPRPRPLDMPRP	0.167

Sequence	shrunken log2 fold change
RRIRPRPPRLPRPRPRPFAPPRP	0.14
RRIRARPPRLPRPRPRPQFEPRP	-0.102
RRIRMRPPRLPRPRPRPRRQPRP	1.13
RRIRARPPRLPRPRPRPTTQPRP	0.584
RRIRPRPPRLPRPRPRPWRWPRP	0.915
RRIRNRPPRLPRPRPRPQKFPRP	-0.0476
RRIRGRPPRLPRPRPRPKNGPRP	0.0583
RRIRFRPPRLPRPRPRPRCDPRP	0.0576
RRIRMRPPRLPRPRPRPHWWPRP	0.325
RRIRQRPPRLPRPRPRPYMKPRP	-0.521
RRIRQRPPRLPRPRPRPLVLPRP	0.00943
RRIRTRPPRLPRPRPRPSHGPRP	0.0388
RRIRHRPPRLPRPRPRPCLSPRP	0.0289
RRIRNRPPRLPRPRPRPSPGPRP	0.431
RRIRQRPPRLPRPRPRPACAPRP	0.587
RRIRSRPPRLPRPRPRPFDNPRP	0.0211
RRIRSRPPRLPRPRPRPDGKPRP	0.00369
RRIRERPPRLPRPRPRPPMNPRP	-0.82
RRIRNRPPRLPRPRPRPPFMPRP	-0.0578
RRIRERPPRLPRPRPRPFFHPRP	-0.264
RRIRFRPPRLPRPRPRPVKKPRP	0.166
RRIRHRPPRLPRPRPRPPHMPRP	-0.115
RRIRIRPPRLPRPRPRPTNTPRP	-0.45
RRIRCRPPRLPRPRPRPRMAPRP	0.331
RRIRKRPPRLPRPRPRPHPMPRP	0.224

Sequence	shrunken log2 fold change
RRIRKRPPRLPRPRPRPRIHPRP	-0.0869
RRIRIRPPRLPRPRPRPHDQPRP	-0.573
RRIRCRPPRLPRPRPRPNHFPRP	-0.484
RRIRCRPPRLPRPRPRPVQMPRP	0.239
RRIRDRPPRLPRPRPRPEGFPRP	0.638
RRIRPRPPRLPRPRPRPVRCPRP	0.545
RRIRMRPPRLPRPRPRPKIDPRP	0.285
RRIRIRPPRLPRPRPRPDSRPRP	-0.0316
RRIRMRPPRLPRPRPRPGLFPRP	0.236
RRIRSRPPRLPRPRPRPLMDPRP	-0.00235
RRIRTRPPRLPRPRPRPCRTPRP	-0.0391
RRIRTRPPRLPRPRPRPVALPRP	0.0946
RRIRTRPPRLPRPRPRPPNFPRP	-0.0576
RRIRRRPPRLPRPRPRPKSTPRP	0.18
RRIRWRPPRLPRPRPRPGAPPRP	0.641
RRIRGRPPRLPRPRPRPQGEPRP	0.327
RRIRHRPPRLPRPRPRPKGLPRP	0.0749
RRIRIRPPRLPRPRPRPFALPRP	-0.178
RRIRRRPPRLPRPRPRPPCQPRP	0.767
RRIRKRPPRLPRPRPRPSTTPRP	0.162
RRIRGRPPRLPRPRPRPVCCPRP	0.957
RRIRYRPPRLPRPRPRPSIPPRP	-1.32
RRIRFRPPRLPRPRPRPNKDPRP	0.539
RRIRHRPPRLPRPRPRPKIKPRP	-0.601
RRIRERPPRLPRPRPRPCFKPRP	-0.0311

Sequence	shrunken log2 fold change
RRIRTRPPRLPRPRPRPDHWPRP	0.0335
RRIRIRPPRLPRPRPRPCGRPRP	0.0552
RRIRFRPPRLPRPRPRPNAQPRP	0.0328
RRIRLRPPRLPRPRPRPQIMPRP	-0.444
RRIRCRPPRLPRPRPRPTTFPRP	-0.635
RRIRYRPPRLPRPRPRPSKTPRP	-0.0513
RRIRDRPPRLPRPRPRPDQWPRP	0.396
RRIRIRPPRLPRPRPRPEDHPRP	-0.185
RRIRERPPRLPRPRPRPRAIPRP	0.0706
RRIRQRPPRLPRPRPRPYCDPRP	-0.431
RRIRQRPPRLPRPRPRPVALPRP	-0.0318
RRIRYRPPRLPRPRPRPCIFPRP	-0.559
RRIRVRPPRLPRPRPRPRQGPRP	0.317
RRIRKRPPRLPRPRPRPVMPPRP	0.244
RRIRSRPPRLPRPRPRPFCFPRP	-0.069
RRIRARPPRLPRPRPRPHWPPRP	0.233
RRIRPRPPRLPRPRPRPGKFPRP	-0.385
RRIRKRPPRLPRPRPRPGITPRP	0.266
RRIRLRPPRLPRPRPRPAYIPRP	-0.098
RRIRNRPPRLPRPRPRPMPDPRP	0.259
RRIRQRPPRLPRPRPRPMSAPRP	-0.107
RRIRHRPPRLPRPRPRPEDSPRP	0.0648
RRIRNRPPRLPRPRPRPQFGPRP	-0.508
RRIRMRPPRLPRPRPRPDNNPRP	0.274
RRIRNRPPRLPRPRPRPHLWPRP	0.0922

From the supplement of paper PMC9112550, “Optimization of the antimicrobial peptide Bac7 by deep mutational scanning” (BMC Biology, 2022)
